Target: T1, PTK7 (receptor on HCT116 cells) (human (HCT116 colon cancer cells)) (UniProt Q13308)
T1 sequence: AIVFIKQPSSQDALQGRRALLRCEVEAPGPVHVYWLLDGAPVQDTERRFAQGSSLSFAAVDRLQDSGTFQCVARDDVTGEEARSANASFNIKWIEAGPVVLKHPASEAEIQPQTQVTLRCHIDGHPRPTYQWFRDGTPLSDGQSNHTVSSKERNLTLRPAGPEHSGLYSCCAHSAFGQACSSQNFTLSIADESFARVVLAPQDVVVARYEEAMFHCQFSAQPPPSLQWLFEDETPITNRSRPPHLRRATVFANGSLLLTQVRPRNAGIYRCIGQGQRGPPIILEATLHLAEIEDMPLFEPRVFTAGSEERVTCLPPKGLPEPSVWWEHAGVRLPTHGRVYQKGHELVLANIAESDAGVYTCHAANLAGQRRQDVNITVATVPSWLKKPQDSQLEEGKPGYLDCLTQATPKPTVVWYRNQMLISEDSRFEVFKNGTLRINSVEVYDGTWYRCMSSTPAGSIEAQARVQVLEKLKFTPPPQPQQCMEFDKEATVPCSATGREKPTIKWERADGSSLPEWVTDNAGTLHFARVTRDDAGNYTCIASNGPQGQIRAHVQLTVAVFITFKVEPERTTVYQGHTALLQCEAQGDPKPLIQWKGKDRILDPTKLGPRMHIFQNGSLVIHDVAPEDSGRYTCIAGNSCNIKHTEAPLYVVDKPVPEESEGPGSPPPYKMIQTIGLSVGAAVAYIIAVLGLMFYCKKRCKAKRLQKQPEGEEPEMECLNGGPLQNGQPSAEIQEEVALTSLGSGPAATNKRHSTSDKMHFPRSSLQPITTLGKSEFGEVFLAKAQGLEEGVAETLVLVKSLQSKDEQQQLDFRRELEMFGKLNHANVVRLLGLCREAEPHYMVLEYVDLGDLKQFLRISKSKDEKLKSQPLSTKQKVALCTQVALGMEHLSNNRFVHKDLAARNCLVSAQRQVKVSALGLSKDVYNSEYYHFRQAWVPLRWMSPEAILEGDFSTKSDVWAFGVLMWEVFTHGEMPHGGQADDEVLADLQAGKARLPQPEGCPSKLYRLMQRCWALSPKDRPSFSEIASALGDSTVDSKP
Assay: flow cytometry
Conditions: 250 nM aptamer (varied for Kd), 30 min at 4 C, DPBS with ~5 mM MgCl2, 0.1 mg/mL yeast tRNA, 1 mg/mL BSA (a 2.25 g additive in the wash buffer is …)

Row | Sequence | Kd (A23 = cordycepin (3'-deoxyadenosine), 2'-5' linkage) [nM] | Kd [nM]
1 | ATCTAACTGCTGCGCCGCCGGGAAAATACTGTACGGTTAGA [Sgc8-23A] | 6.3 | –
2 | ATCTAACTGCTGCGCCGCCGGGAAAATACTGTACGGTTAGA [Sgc8c (Sgc8-Cy5)] | – | 5.92

Source: PMC12208130
